According to patent publication US20240392013A1 (STELEXIS THERAPEUTICS, published 2024):

T1: IL1RAP on HEK-Blue IL1β / HEK-Blue IL33 reporter cells (UniProt Q9NPH3 21-570, limits assumed)
T1 sequence (looked up): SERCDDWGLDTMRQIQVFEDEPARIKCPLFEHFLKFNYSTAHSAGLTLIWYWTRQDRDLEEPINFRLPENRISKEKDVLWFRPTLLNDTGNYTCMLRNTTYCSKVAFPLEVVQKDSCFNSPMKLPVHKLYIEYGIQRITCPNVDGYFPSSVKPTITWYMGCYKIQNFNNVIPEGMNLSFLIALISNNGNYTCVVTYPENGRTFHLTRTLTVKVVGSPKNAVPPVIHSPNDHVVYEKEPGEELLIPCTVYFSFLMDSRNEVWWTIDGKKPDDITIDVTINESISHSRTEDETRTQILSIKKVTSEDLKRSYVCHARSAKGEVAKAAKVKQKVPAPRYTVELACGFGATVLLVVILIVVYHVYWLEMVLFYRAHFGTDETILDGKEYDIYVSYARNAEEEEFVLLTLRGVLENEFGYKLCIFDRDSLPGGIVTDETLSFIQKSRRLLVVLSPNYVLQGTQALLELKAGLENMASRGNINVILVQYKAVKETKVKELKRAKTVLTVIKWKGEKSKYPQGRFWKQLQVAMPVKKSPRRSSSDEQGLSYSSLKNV

T2: recombinant mouse IL1RAP protein (Sino Biological, Cat #52657-M08H) (mouse, UniProt Q61730 21-359)
T2 construct: Bought protein
T2 sequence (looked up): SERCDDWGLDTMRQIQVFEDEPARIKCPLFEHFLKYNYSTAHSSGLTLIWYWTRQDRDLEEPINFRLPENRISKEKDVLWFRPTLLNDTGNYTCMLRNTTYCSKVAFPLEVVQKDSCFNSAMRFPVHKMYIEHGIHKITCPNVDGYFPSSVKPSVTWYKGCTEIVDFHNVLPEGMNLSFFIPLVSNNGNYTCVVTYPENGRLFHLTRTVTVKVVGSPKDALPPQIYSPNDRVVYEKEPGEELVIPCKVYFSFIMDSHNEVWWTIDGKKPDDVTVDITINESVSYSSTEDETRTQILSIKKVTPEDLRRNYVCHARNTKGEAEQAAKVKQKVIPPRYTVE

T3: cyIL1RAP-His (Lake Pharma) (cynomolgus monkey, UniProt A0A2K5X5J5 21-367)
T3 construct: Bought protein (Lake Pharma, lot 16205819371); also called cynomolgus IL1RAP; monkey IL1RAP; not shown: His tag
T3 sequence: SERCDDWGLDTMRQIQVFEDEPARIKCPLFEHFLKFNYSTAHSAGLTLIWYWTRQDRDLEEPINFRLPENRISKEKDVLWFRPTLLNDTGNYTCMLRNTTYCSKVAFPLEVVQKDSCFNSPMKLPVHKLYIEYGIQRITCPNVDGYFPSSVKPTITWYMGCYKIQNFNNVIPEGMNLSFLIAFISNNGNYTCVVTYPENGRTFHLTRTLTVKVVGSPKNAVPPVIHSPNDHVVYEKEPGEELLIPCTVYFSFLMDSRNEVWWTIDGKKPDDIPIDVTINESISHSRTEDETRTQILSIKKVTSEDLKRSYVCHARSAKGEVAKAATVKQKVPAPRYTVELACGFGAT

T4: recombinant human IL1RAP protein, extracellular domain His-tagged (Sino Biological, Cat #10121-H08H) (human, UniProt Q9NPH3 21-367)
T4 construct: extracellular domain; Bought protein; The Octet analyte is printed as huIL1RAP-His (Sino Biological, lot MB08MA1301) without a catalogue number; also called huIL1RAP-His; hIL1RAP; not shown: His tag
T4 sequence (looked up): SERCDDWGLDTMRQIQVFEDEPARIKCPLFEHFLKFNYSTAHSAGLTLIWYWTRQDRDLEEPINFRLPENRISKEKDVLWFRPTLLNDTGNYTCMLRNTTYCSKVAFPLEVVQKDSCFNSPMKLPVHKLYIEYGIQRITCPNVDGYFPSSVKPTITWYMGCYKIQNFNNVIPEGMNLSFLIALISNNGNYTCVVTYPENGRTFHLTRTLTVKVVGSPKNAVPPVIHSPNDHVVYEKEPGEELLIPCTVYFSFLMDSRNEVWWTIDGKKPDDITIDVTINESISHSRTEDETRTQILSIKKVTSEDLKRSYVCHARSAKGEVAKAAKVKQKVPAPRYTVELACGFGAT


Experiments:
[1] = target: T1, IL1RAP on HEK-Blue IL1β / HEK-Blue IL33 …; assay: cell-based or functional assay
[2] = target: T1, IL1RAP on HEK-Blue IL1β / HEK-Blue IL33 …; assay: cell-based or functional assay; remark: listed apart in the source
[3] = target: T2, recombinant mouse IL1RAP protein (Sino …); assay: cell-free ELISA, mouse IL1RAP coated; data not shown
Experimental: Recombinant human or mouse IL1RAP proteins (Sino Biological, Beijing, China; Cat #10121-H08H and Sino Biological, Cat #52657-M08H respectively) were diluted in PBS, pH 7.4 at concentration of 1 μg/ml, coated on high-binding 384-well clear plates and incubated overnight at 4° C. Following, plates were washed 3× with 0.05% Tween-20 in PBS, pH 7.5 and then blocked with 1% BSA in PBS for 1 hour at room temperature. After 3× washes, wells were incubated with each antibody at the highest concentration of 100 nM followed by seven serial half log dilutions (in 1% BSA and 0.05% Tween-20 in PBS) for 1 hour at room temperature. Plates were then washed 3× and incubated with […] detection antibody (Medna, TX, USA; Cat #D8212, 0.5 μg/ml diluted in 0.02% Tween-20 in PBS). After 5× washes, Supersignal ELISA Pico substrate (Thermofisher, MA, USA; Cat #37069) was applied to wells and chemiluminescent signal was read on Sprectramax L for 200 ms/well. Similarly, detection with specific κ and λ antibodies was conducted to define light chain isotyping.

[4] = target: T3, cyIL1RAP-His (Lake Pharma); assay: Octet BLI; mAb captured on anti-mouse IgG Fc sensor; cyIL1RAP-His analyte
Experimental: (§1) Antibodies were diluted in kinetics buffer (0.1% BSA, 0.02% Tween-20 and 0.05% NaN₃ in PBS) and loaded onto 16 channel anti-mouse IgG Fc capture sensors (AMC, Cat #2001073; Sartorius, Göttingen, Germany). Human, huIL1RAP-His (Sino Biological, lot: MB08MA1301), and monkey, cyIL1RAP-His (Lake Pharma, NY, USA; lot:16205819371) proteins were titrated starting from the highest concentration of 100 nM and followed by 50 nM and 25 nM. Purified antibodies were loaded at 5 μg/ml in kinetics buffer. The experimental parameters selected to determine the kinetic constants were Baseline for 60 s, Loading of antibody to sensor for 180 s, Association of analyte to antibody for 120 s, Dissociation for 1200 s and Regeneration in 10 mM Glycine pH 1.7 for 4×30 s.
(§2) Regeneration cycle tracking was selected for 12 cycles. Binding to human and cynomolgus IL1RAP was measured and KD (M) kinetics were calculated. Also, the disassociation rate (Kdis) (1/s) and association rate (Kon) (1/Ms) kinetics were calculated (data not shown).

[5] = target: T4, recombinant human IL1RAP protein, …; assay: Octet BLI; mAb captured on anti-mouse IgG Fc sensor; huIL1RAP-His analyte
Experimental: as §1, §2

Row | Binder | IC50, HEK-BlueIL1β NFκB Reporter Assay [1] | Max % Inhibition at 200 nM, HEK-BlueIL1β NFκB Reporter Assay [1] | IC50, HEK-BlueIL33 NFκB Reporter Assay [2] | Max % Inhibition at 200 nM, HEK-BlueIL33 NFκB Reporter Assay [2] | binding result [3] | Kd [4] | Response [4] | koff [4] | kon [4] | Kd [5] | Response [5] | koff [5] | kon [5]
1 | STLX2029 (antibody, V domains shown, Purified from hybridoma of immunized Alivamab mice; intact IgG; captured on anti-mouse IgG Fc sensors in Octet; kappa light chain; also called 74804_29D13A) VH: QVQLLQSGAEVKKPGSSVKVSCKASGGTFSIYAIDWVRQAPGQGLEWMGGIIPIFGTANSAQKFQGRVTITADKSTSTAYMELSSLRSEDTAVYYCARNGATSDAFDMWGQGTMVTVSS VL: EIVLTQSPGTLSLSPGERATLSCRASLSVSSNYLAWFQQRPGQAPRLLIYGVSRRATGIPDRFSGSGSGTDFTLTISRLEPEDFAVYYCQQYGSSPLTFGGGTKVEIK | 1.85e-09 M (implied; unit not printed) | 99% | 8.75e-09 M (implied; unit not printed) | 86% | no binding (tested: 100 nM) | 1.97 nM | 0.327 | 0.00065 s⁻¹ | 330000 M⁻¹ s⁻¹ | 1.07 nM | 0.291 | 0.000361 s⁻¹ | 336000 M⁻¹ s⁻¹
2 | STLX2007 (antibody, V domains shown, Purified from hybridoma of immunized Alivamab mice; intact IgG; captured on anti-mouse IgG Fc sensors in Octet; kappa light chain; also called 74804_07K10A) VH: QVQLLQSGAEVKKPGSSVKVSCRASGGTFSIYAIDWVRQAPGQGLEWMGGIIPISGTENSAQNFQDRITITADKSTNTAYMELSSLRSEDTAVYYCARNGATSDAFDIWGQGTMVTVSS VL: EIVLTQSPGTLSLSPGERATLSCRASLSVSSNYLAWFQQRPGQAPRLLIYGVSRRATGIPDRFSGSGSGTDFTLTISRLEPEDFAVYYCQQYGSSPLTFGGGTKVEIK | 3.19e-09 M (implied; unit not printed) | 100% | 6.62e-09 M (implied; unit not printed) | 79% | no binding (tested: 100 nM) | 0.751 nM | 0.273 | 0.000283 s⁻¹ | 377000 M⁻¹ s⁻¹ | 0.596 nM | 0.247 | 0.000234 s⁻¹ | 392000 M⁻¹ s⁻¹
3 | STLX2051 (antibody, V domains shown, Purified from hybridoma of immunized Alivamab mice; intact IgG; captured on anti-mouse IgG Fc sensors in Octet; kappa light chain; also called 74804_51C10A) VH: QVQLLQSGAEVKKPGSSVKVSCKASGGTFNIYAIDWVRQAPGQGLEWMGGIIPIFGTANSAQKFQGRVTITADKSTNTAYMELSSLRSEDTAVYYCARNGATSDAFDIWGQGTMVTVSS VL: EIVLTQSPGTLSLSPGERATLSCRASQSVSSNYLAWFQQRPGQAPRLLIYGVSRRATGIPDRFSGSGSGTDFTLTISRLEPEDFAVYYCQQYGSSPLTFGGGTKVEIK | 2.5e-09 M (implied; unit not printed) | 99% | 1.3e-08 M (implied; unit not printed) | 77% | no binding (tested: 100 nM) | 1.41 nM | 0.265 | 0.000459 s⁻¹ | 326000 M⁻¹ s⁻¹ | 0.875 nM | 0.237 | 0.000301 s⁻¹ | 344000 M⁻¹ s⁻¹

Continued by falling Kd [4], values first:

Row | IC50, HEK-BlueIL1β NFκB Reporter Assay [1] | Max % Inhibition at 200 nM, HEK-BlueIL1β NFκB Reporter Assay [1] | IC50, HEK-BlueIL33 NFκB Reporter Assay [2] | Max % Inhibition at 200 nM, HEK-BlueIL33 NFκB Reporter Assay [2] | binding result [3] | Kd [4] | Response [4] | koff [4] | kon [4] | Kd [5] | Response [5] | koff [5] | kon [5] | Binder
4 | 7.37e-10 M (implied; unit not printed) | 98% | 2.49e-09 M (implied; unit not printed) | 80% | no binding (tested: 100 nM) | 4.54 nM | 0.265 | 0.000863 s⁻¹ | 190000 M⁻¹ s⁻¹ | 2.34 nM | 0.308 | 0.000391 s⁻¹ | 167000 M⁻¹ s⁻¹ | STLX2001E (antibody, V domains shown, Purified from hybridoma of immunized Alivamab mice; intact IgG by SEC and SDS-PAGE; captured on anti-mouse IgG Fc sensors in Octet; kappa light chain; also called 74804_01E23A) VH: QVQLVQSGAEVKKPGASVKVSCKASGYTFTGYYMHWVRQAPGQGLEWMGWLNPNSGGTDYVQKFQGRVTMTRDTSISTAYMELSRLRSDDTAVYYCARTLYYYGMDVWGQGTTVTVSS VL: not shown
5 | 1.77e-09 M (implied; unit not printed) | 100% | 6.55e-09 M (implied; unit not printed) | 73% | no binding (tested: 100 nM) | 2.09 nM | 0.263 | 0.000297 s⁻¹ | 142000 M⁻¹ s⁻¹ | 2.18 nM | 0.26 | 0.000337 s⁻¹ | 154000 M⁻¹ s⁻¹ | STLX2025 (antibody, V domains shown, Purified from hybridoma of immunized Alivamab mice; intact IgG; captured on anti-mouse IgG Fc sensors in Octet; kappa light chain; also called 74804_25H09A) VH: QVQLVQSGAEVKKPGSSVKVSCKASGDTFSNYAITWVRQAPGQGLEWIVGFSPIFGTANYAQKFQGRVTITADKSTSTAYMELSSLISEDTAVYYCAWGSGNFNWFDPWGQGTLVTVSS VL: AIRMTQSPSSFSASTGDRVTITCRASQGISSYLAWYQQKPGKAPKLLIYAASTLQSGVPSRFSGSGSGTDFTLTISSLQSEDFATYYCQQYYSYPLTFGGGTKVEIK
